Patent publication US9035028B2, “Temperature sensitive conjugate compositions” (Emory University, priority 2010, dated 2015)
Where a SMILES comes first, the peptide text is derived from it. Bridges are numbered along the chain shown (N, C = ends). [ ]: non-standard residue; d: D form. hArg = N=C(N)NCCCC[C@H](N)C(=O)O; Mpa = O=C(O)CCS

Assays:
[1] = molecular target: T1, αv/β3 integrins on vascular cells (Homo sapiens, UniProt P05106+P06756); details: cited from earlier work
T1 construct: host or cells: vascular cells (not specified)

[2] = system: activated human platelets; assay: Microscopic analysis of platelet aggregates; format: cell-based; details: both temperatures (22° C. and 37° C.)
Method: For the microscopic analysis of platelet aggregates at different temperatures, non-diluted human PRP was placed onto a glass slide and ADP was added to a final concentration of 20 μM, in the presence and absence of EMP-scFv (50 μg/mL). Abciximab was used as a positive control at a concentration of 10 μg/mL. The experiments were conducted at 22° C. and 37° C. Phase contrast microscopy images were taken using an Olympus CKX41 microscope.

GPIIb/IIIa = GPIIb/IIIa (Homo sapiens, UniProt P05106+P08514); assay: Specificity of scFv (studies in applicant's laboratory); format: binding
[3] = in contrast to conformation unspecific GPIIb/IIIa inhibitors; cited from earlier work
[4] = Circular dichroism (CD) spectra and thermal transition profile; format: physicochemical
Method: The mathematical fitting of the CD data allowed the determination of the transition temperature (Tt) resulting from conformational change of EMP as the temperature is increased. The mathematical fitting of the CD data to the van't Hoff equation allowed the determination of the transition temperature (Tt) resulting from conformational change of EMP and EMP-scFv as the temperature is increased.
Circular dichroism (CD) spectra were recorded on a Jasco J-810 spectropolarimeter equipped with a PFD-425S Peltier temperature control unit in 0.1 cm sealed quartz cells at concentrations of 7.5 μM (EMP), 8.4 μM (scFv) and 4.1 μM (EMP-scFv) in 50 mM sodium phosphate buffer, pH 7.4. Temperature/wavelength CD-scans were performed within the temperature range from 5° C. to 35° C. with equilibration for 10 min at each temperature. Spectra were obtained from 260 to 190 nm at a resolution of 0.5 nm and at a scanning speed of 50 nm/min. The CD curves represented the average of five measurements and were smoothed using the means-movement method on the interval analysis of the spectral manager program. CD data are reported as mean residue ellipticity ([θ], deg cm^2 dmol^−1). Thermal transition curves were plotted by the mean residue ellipticity as a function of temperature for the disappearance of the random coil and the appearance of the β-turn structure.

[5] = molecular target: T2, GPIIb/IIIa (integrin alphaIIb beta3) on human platelets (human, UniProt P08514 32-1039; P05106 27-788); assay: flow cytometry, resting and ADP-activated human platelets, 22° C., 32° C. and 37° C.
T2 construct: whole, on cells; also called GPIIb/IIIa receptor; glycoprotein IIb/IIIa

[6] = molecular target: T3, GPIIb/IIIa on human platelets (Homo sapiens, UniProt P05106+P08514); assay: Flow cytometry: binding to human platelets; details: regardless of the temperature
T3 construct: endogenous in cells
Method: Human blood was collected by venipuncture with a 21-gauge butterfly needle from healthy volunteers and anticoagulated with citric acid. Platelet-rich plasma (PRP) was obtained by centrifugation (GS-6R centrifuge, Beckman Coulter) at 100×g at room temperature for 10 min.
Human PRP was diluted 1/50 in modified Tyrode's buffer containing 2 mM MgCl2 and 2 mM CaCl2. Platelets were either activated by addition of 20 μM ADP, or non activated, followed by the incubation with 15 and 50 μg/mL EMP-scFv fusion protein or EMP at 22° C., 32° C. and at 37° C. for 15 min. Mouse platelets were either pre-activated for 10 min by addition of 0.1 U/mL thrombin (Enzyme Research Laboratories), or non activated, before the incubation with 15 and 50 μg/mL of EMP-scFv fusion protein at 22° C., 32° C. or 37° C. for 15 min. In both, human and mouse samples, EMP-scFv was detected via 15 min in-dark incubation with secondary antibody (Penta-His Alexa Fluor 488, Qiagen) directed against the His(6)-tag of the single-chain antibody.
In re-warming experiments, activated and non-activated diluted human PRP was incubated with 15 and 50 μg/mL of EMP-scFv for 15 minutes at 22° C., followed by a 15-min in dark incubation with secondary Penta-His Alexa Fluor 488 antibody. Half of the reaction was then fixed with 1× Cell FIX, while the other half was incubated at 37° C. for either 15 or 30 minutes, before being fixed and measured in FACS.

T1 sequence (P06756 31-889 limits assumed): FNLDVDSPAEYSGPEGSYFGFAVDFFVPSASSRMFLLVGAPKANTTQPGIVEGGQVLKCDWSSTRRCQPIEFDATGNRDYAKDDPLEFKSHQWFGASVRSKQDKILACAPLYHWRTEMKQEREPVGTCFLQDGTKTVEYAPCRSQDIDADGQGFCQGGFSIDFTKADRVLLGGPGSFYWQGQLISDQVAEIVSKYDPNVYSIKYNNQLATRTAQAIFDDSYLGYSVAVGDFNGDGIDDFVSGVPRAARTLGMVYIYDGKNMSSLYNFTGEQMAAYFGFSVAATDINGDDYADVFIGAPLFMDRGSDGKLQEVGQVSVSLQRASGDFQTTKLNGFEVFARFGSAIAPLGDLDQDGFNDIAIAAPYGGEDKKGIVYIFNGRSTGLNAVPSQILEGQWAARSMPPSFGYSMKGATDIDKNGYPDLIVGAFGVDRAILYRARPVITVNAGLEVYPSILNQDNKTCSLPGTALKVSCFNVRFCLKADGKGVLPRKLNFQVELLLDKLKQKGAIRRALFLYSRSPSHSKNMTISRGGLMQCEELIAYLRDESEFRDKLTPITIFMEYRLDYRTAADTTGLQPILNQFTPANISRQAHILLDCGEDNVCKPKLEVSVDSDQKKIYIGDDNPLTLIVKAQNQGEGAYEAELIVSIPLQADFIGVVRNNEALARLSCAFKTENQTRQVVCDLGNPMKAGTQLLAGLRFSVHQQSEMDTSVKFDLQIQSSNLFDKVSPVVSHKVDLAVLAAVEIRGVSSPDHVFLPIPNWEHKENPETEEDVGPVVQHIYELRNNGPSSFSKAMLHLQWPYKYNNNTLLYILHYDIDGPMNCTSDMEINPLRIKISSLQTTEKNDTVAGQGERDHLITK
T1 sequence (P06756 891-1048 partner limits assumed): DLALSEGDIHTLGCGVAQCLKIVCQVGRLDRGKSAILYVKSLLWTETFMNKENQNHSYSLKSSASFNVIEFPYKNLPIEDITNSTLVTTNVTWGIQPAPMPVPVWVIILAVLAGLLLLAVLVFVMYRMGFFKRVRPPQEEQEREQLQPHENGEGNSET
T1 sequence (P05106 27-788): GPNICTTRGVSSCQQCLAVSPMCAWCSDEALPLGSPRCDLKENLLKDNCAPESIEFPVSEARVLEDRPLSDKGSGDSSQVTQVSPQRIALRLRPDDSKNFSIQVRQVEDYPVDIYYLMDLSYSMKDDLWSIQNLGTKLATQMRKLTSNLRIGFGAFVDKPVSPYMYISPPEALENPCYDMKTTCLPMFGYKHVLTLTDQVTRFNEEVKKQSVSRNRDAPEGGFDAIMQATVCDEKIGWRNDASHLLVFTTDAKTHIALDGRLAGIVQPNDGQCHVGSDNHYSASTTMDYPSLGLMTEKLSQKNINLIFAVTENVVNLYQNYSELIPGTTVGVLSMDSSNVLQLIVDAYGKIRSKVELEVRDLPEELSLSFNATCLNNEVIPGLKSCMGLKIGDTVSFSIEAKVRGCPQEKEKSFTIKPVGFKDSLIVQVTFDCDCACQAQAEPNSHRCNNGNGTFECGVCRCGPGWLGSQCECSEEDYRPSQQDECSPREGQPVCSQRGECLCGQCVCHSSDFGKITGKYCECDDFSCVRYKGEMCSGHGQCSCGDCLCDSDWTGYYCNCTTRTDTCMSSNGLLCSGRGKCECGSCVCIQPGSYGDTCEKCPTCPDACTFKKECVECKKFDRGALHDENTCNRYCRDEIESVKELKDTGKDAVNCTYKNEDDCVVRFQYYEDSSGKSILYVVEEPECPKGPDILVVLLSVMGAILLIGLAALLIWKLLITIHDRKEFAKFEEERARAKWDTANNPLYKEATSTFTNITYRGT

Molecule: N=C(N)NCCCC[C@@H]1NC(=O)CCSSC[C@@H](C(N)=O)NC(=O)[C@@H]2CCCN2C(=O)[C@H](Cc2c[nH]c3ccccc23)NC(=O)[C@H](CC(=O)O)NC(=O)CNC1=O [eptifibatide] ([Mpa][hArg]GDWPC-NH2; disulfide 1-7)
- ligand binding to αv/β3 integrins on vascular cells [1]: antagonize ligand binding

Molecule: abciximab [reference compound]
- ligand binding to αv/β3 integrins on vascular cells [1]: antagonize ligand binding
- aggregation of activated human platelets (microscopy) [2]: abolishes aggregation

B1: scFv: activation-specific GPIIb/IIIa-blocking single-chain antibody, SEQ ID NO: 13 (protein)
scFv: MAEVQLVESGGGLVQPGGSLRLSCAASGFMFSRYAMSWVRQAPGKGPEWVSGISGSGGSTYYADSVKGRFTVSRDNSKNTLYLQMNSLRAEDTAVYYCARIFTHRSRGDVPDQTSFDYWGQGTLVTVSSGSASAPKLEEGEFSEARVSSELTQDPAVSVALGQTVRITCQGDSLRNFYASWYQQKPGQAPTLVIYGLSKRPSGIPDRFSASSSGNTASLTITGAQAEDEADYYCLLYYGGGQQGVFGGGTKLTVLRQPKAAPSVTLFPPSSAAAGSEQKLISEEDLNS
- specificity of binding (GPIIb/IIIa): GPIIb/IIIa-specific and binds to activated platelets exclusively
- bleeding time [3]: does not prolong bleeding time
- conformational changes in CD ([4]; temperature increased up to 35° C.): No significant conformational changes

B2: EMP alone (elastin-mimetic polypeptide without scFv) (other)
chain: MAVPAVGIPAVGIPAVGIPAVGIPAVGIPAVGIPAVGIPAVGIPAVGIPAVGIPAVGIPAVGIPAVGIPAVGIPAVGIPAVGIPAVGIPAVGIPAVGIPAVGIPAVGIPAVGIPAVGIPAVGIPAVGIPAVGIPAVGIPAVGIPAVGIPAVGIPAVGIPAVGIPAVGIPAVGIPAVGIPAVGIPAVGIPAVGIPAVGIPAVGIPAVGIPAVGIPAVGIPAVGIPAVGIPAVGIPAVGIPAVGIPAVGIPAVGIPAVGIPAVGIPAVGIPAVGIPAVGIPAVGIPAVGIPAVGIPAVGIPAVGIPAVGIPAVGIPAVGIPAVGIPAVGIPAVGIPAVGIPAVGIPAVGIPAVGIPAVGIPAVGIPAVGIPAVGIPAVGIPAVGIPAVGIPAVGIPAVGIPAVGIP
- binding result [5]: no binding (tested: 15 and 50 µg/mL)

B3: EMP: elastin mimetic polypeptide, sixteen repeats of monomer (IPAVG)5, SEQ ID NO: 11, approximately 35 kDa (protein)
chain: MAVPAVGIPAVGIPAVGIPAVGIPAVGIPAVGIPAVGIPAVGIPAVGIPAVGIPAVGIPAVGIPAVGIPAVGIPAVGIPAVGIPAVGIPAVGIPAVGIPAVGIPAVGIPAVGIPAVGIPAVGIPAVGIPAVGIPAVGIPAVGIPAVGIPAVGIPAVGIPAVGIPAVGIPAVGIPAVGIPAVGIPAVGIPAVGIPAVGIPAVGIPAVGIPAVGIPAVGIPAVGIPAVGIPAVGIPAVGIPAVGIPAVGIPAVGIPAVGIPAVGIPAVGIPAVGIPAVGIPAVGIPAVGIPAVGIPAVGIPAVGIPAVGIPAVGIPAVGIPAVGIPAVGIPAVGIPAVGIPAVGIPAVGIPAVGIPAVGIPAVGIPAVGIPAVGIPAVGIPAVGIPAVGIPAVGIPAVGIPAVGIP
- binding to resting or activated platelets [6]: did not bind
- transition temperature (Tt) ([4]; CD data at 198 and 220 nm, van't Hoff fit): approximately 26 °C
